Data: patent publication US20210388337

Assays:
Test in all cases: stopped-flow tryptophan fluorescence, avidin 0.5 µM, biotin-protein 5.0 µM
Avidin-pCBMA232, P02701 = molecular target: Avidin-pCBMA232, P02701
Avidin-pCBMA56, P02701 = molecular target: Avidin-pCBMA56, P02701
Avidin-pCBMA182, P02701 = molecular target: Avidin-pCBMA182, P02701
Avidin-pCBMA109, P02701 = molecular target: Avidin-pCBMA109, P02701
Avidin-pCBMA121, P02701 = molecular target: Avidin-pCBMA121, P02701
Avidin-pCBMA170, P02701 = molecular target: Avidin-pCBMA170, P02701
Avidin-pCBMA152, P02701 = molecular target: Avidin-pCBMA152, P02701
Native avidin, P02701 = molecular target: Native avidin, P02701
Avidin-pCBMA58, P02701 = molecular target: Avidin-pCBMA58, P02701
Chain of Avidin-pCBMA58, P02701 (P02701 25-152): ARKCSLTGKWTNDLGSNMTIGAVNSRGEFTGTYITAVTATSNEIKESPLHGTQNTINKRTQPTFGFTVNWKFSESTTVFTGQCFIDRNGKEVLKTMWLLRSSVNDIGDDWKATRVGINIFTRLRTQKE

Chain of Avidin-pCBMA232, P02701 (P02701 25-152): as above
Chain of Avidin-pCBMA170, P02701 (P02701 25-152): as above
Chain of Avidin-pCBMA56, P02701 (P02701 25-152): as above
Chain of Avidin-pCBMA121, P02701 (P02701 25-152): as above
Chain of Avidin-pCBMA109, P02701 (P02701 25-152): as above
Chain of Native avidin, P02701 (P02701 25-152): as above
Chain of Avidin-pCBMA182, P02701 (P02701 25-152): as above
Chain of Avidin-pCBMA152, P02701 (P02701 25-152): as above

B1: Biotin-HRP (protein)
chain: QLTPTFYDNSCPNVSNIVRDTIVNELRSDPRIAASILRLHFHDCFVNGCDASILLDNTTSFRTEKDAFGNANSARGFPVIDRMKAAVESACPRTVSCADLLTIAAQQSVTLAGGPSWRVPLGRRDSLQAFLDLANANLPAPFFTLPQLKDSFRNVGLNRSSDLVALSGGHTFGKNQCRFIMDRLYNFSNTGLPDPTLNTTYLQTLRGLCPLNGNLSALVDFDLRTPTIFDNKYYVNLEEQKGLIQSDQELFSSPNATDTIPLVRSFANSTQTFFNAFVEAMDRMGNITPLTGTQGQIRLNCRVVNSNS
Question: Which k (kobs, observed first-order rate constant) (Avidin-pCBMA232, P02701) does the source give for B1 here?
Answer: The k (kobs, observed first-order rate constant) was 0.196 s⁻¹.

Question: What about the k (kobs, observed first-order rate constant) (Avidin-pCBMA56, P02701) of the same protein?
Answer: Its k (kobs, observed first-order rate constant) is 0.261 s⁻¹.

Question: And the k (kobs, observed first-order rate constant) (Avidin-pCBMA182, P02701)?
Answer: Its k (kobs, observed first-order rate constant) is 0.025 s⁻¹.

Question: What about the k (kobs, observed first-order rate constant) (Avidin-pCBMA109, P02701) of the same protein?
Answer: The k (kobs, observed first-order rate constant) was 0.026 s⁻¹.

Question: What about the k (kobs, observed first-order rate constant) (Avidin-pCBMA121, P02701) of the same protein?
Answer: The k (kobs, observed first-order rate constant) was 0.218 s⁻¹.

Question: And the k (kobs, observed first-order rate constant) (Avidin-pCBMA170, P02701)?
Answer: The k (kobs, observed first-order rate constant) was 0.209 s⁻¹.

Question: And the k (kobs, observed first-order rate constant) (Avidin-pCBMA152, P02701)?
Answer: The k (kobs, observed first-order rate constant) was 0.025 s⁻¹.

Question: And the k (kobs, observed first-order rate constant) (Native avidin, P02701)?
Answer: Its k (kobs, observed first-order rate constant) is 5.03 s⁻¹.

Question: What about the k (kobs, observed first-order rate constant) (Avidin-pCBMA58, P02701) of the same protein?
Answer: The k (kobs, observed first-order rate constant) was 0.028 s⁻¹.
